These results are taken from patent publication US20020037840A1 (GENETICS INSTITUTE, published 2002).

For the assay, the target named is T1, full length form of human PSGL-1 (human, UniProt Q14242 42-412).
T1 construct: whole, on cells; Expressed whole in COS cells and precipitated from the cell lysate with the biotinylated anti-PSGL-1 antibody 2G3; also called P-selectin glycoprotein ligand; CD162
T1 sequence (looked up): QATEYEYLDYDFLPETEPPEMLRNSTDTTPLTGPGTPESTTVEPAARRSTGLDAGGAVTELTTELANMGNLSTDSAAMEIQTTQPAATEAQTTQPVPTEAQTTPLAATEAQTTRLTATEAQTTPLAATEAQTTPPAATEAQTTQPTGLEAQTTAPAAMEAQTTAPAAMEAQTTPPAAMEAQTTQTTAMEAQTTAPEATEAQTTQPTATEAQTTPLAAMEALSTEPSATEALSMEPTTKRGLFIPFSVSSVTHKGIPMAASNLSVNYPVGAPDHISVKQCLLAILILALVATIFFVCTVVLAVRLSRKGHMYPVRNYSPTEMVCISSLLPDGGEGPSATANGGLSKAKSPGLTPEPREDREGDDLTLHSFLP
Description: co-immunoprecipitation from COS cell lysates with anti-PSGL-1 antibody 2G3, anti-T7 Western blot. The method, then: COS cells were transfected with T7-tagged forms of SLIC-1 as described in Example 3. Vector pMT-PL85A (Genetics Institute) was included in a subset of samples to transiently overexpress the full length form of human PSGL-1. Cell lysis was carried out as described above in 900 μL/dish of lysis buffer consisting of 20 mM Tris-HCl, pH 7.4, 137 mM NaCl, 0.05% Triton-X and protease inhibitors (Hildt, E and Oess, S J 1999 J. Exp. Med. 189(11): 1707-1714). A small volume of cleared cell lysate was used for Western Blotting to detect overexpressed protein in the whole cell lysate and for spectrophotometric measurement of the protein content. A volume of 300 μL of each lysate was used for co-immunoprecipitation studies with either 2.5 μg of biotinylated monoclonal mouse anti-PSGL-1 antibody (antibody 2G3, Genetics Institute) or a biotinylated control antibody (SIGMA). The samples were agitated at 4° C. for 5 hours, and immuncomplexes were precipitated with streptavidin agarose beads (Pierce) under the same conditions for 1 hour. […] The presence of T7-tagged SLIC-1 protein in the samples was detected by Western blot analysis using an anti-T7 Horse Radish Peroxidase LumiBlot Kit (Novagen) according to the manufacturer's instructions.
(In western blotting, separated proteins are transferred to a membrane and probed.)

B1: T7-tagged truncated SLIC-1 protein comprising amino acid residues 1-88 (other)
chain: MASMTGGQQMGMASPEHPGSPGCMGPITQCTARTQQEAPATGPDLPHPGPDGHLDTHSGLSSNSSMTTRELQQYWQNQKCRWKHVKLLFEIASARIEER
notes: also called T7SLIC-1AA88; encoded by PED.T7U5AA88
B1: the binding result is “no binding”.

B2: T7-tagged truncated SLIC-1 protein comprising amino acid residues 1-160 (other)
chain: MASMTGGQQMGMASPEHPGSPGCMGPITQCTARTQQEAPATGPDLPHPGPDGHLDTHSGLSSNSSMTTRELQQYWQNQKCRWKHVKLLFEIASARIEERKVSKFVVYQIIVIQTGSFDNNKAVLERRYSDFAKLQKALLKTFREEIEDVEFPRKHLTGNFAEEMICERRRA
notes: Made with a linker; also called T7SLIC-1AA160; encoded by pED.T7U5AA160
For B2, the binding result was “no binding”.
